Experimental data: patent publication US11260100B2, “Compositions targeting the interaction domain between p27Kip1 and Brk and methods of use thereof to inhibit p27 Y phosphorylation and cdk4 activity” (The Research Foundation for the State University of New York, priority 2014, dated 2022)

Target: T1, Brk phosphorylation of p27 (Homo sapiens, UniProt P46527+Q13882)
T1 construct: were incubated with p27 before the addition of full length Brk and ATP; We incubated full length p27 with Src or Brk in the presence of ATP; purchased SignalChem (GST-PTK6/Brk) or Invitrogen (His-PTK6/Brk); host or cells: p27 made in house in E. coli
T1 sequence (Q13882 whole entry): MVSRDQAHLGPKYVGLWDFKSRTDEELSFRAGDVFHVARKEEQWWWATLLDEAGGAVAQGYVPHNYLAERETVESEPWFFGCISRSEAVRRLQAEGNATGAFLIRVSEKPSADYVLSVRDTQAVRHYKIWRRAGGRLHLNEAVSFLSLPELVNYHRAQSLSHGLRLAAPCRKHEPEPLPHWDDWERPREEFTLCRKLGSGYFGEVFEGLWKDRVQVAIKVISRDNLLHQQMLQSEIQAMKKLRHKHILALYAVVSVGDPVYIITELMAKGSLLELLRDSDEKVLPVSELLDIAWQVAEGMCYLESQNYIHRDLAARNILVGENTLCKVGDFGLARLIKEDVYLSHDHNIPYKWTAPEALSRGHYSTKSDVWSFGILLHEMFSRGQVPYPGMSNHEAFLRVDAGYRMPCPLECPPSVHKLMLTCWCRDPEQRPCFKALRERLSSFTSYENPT
T1 sequence (P46527 whole entry): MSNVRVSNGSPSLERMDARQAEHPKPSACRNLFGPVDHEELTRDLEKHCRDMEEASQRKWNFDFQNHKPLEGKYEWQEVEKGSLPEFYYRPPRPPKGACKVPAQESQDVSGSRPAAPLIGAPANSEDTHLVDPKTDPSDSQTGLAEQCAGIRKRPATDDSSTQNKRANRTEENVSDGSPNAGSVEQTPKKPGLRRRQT
Experiment: In vitro Brk phosphorylation of p27 with competitor, pY88/pY74 immunoblot
Assay type: biochemical
Conditions: increasing amounts of competitor
Description: FIGS. 3A-3D: SH3:PxxP interaction is required for p27 Y88 phosphorylation. (FIG. 3A) p27 and Brk were incubated with ATP and with increasing concentrations of the PxxP competitor, F58-106, followed by immunoblot analysis with pY88, pY74 and p27 antibodies. Lane 5: +equimolar amount of F58-106 and p27, lane 6: ++2.5×F58-106, lane 7: +++5×F58-106, lane 8: ++++10×F58-106. (FIG. 3B) GST-Brk, p27 and F58-106 were incubated, immunoprecipitated with GST antibodies, followed by immunblot analysis with GST or p27 antibodies. (FIG. 3C) Increasing amounts of GST-SH3, GST-SH2 or GST peptides were incubated with p27, followed by immunoblot analysis with pY88, pY74, p27 and GST antibodies. Lanes 3, 5, 7: 2.5× competitor, lanes 4, 6, […]: 5× competitor. (FIG. 3D) GST-SH3, GST-SH2 or GST peptides were incubated with p27 or ΔK1/K3, followed by metal agarose chromatography and immunoblot analysis with GST and p27 antibodies. Loading control: GST peptides added to the reaction which are not representative of association.
FIGS. 8A-8G: Alt Brk (SEQ ID NO: 17) acts as an endogenous inhibitor of Brk. […]
To directly verify this, we expressed a Flag-tagged Alt-Brk in bacteria and purified this 15 Kd protein (FIG. 8A). When p27 was incubated with Brk, Y88 and Y74 phosphorylation was detected by immunoblot analysis (FIG. 8A, lane 3). […]

B1: Alt-Brk: alternative splice variant of Brk (SEQ ID NO: 17), 15 KD protein with SH3 domain, lacks kinase domain (protein, listed as Homo sapiens)
chain: MVSRDQAHLGPKYVGLWDFKSRTDEELSFRAGDVFHVARKEEQWWWATLLDEAGGAVAQGYVPHNYLAERETVESEPAGHAGCAALQDLAACRGPAAPERGGVLPQPARACELPQGPEPVPRPAAGRALPEARA
p27 Y74 phosphorylation by Brk: not affected
p27 Y88 phosphorylation by Brk: decreased
